Blank lines part the entries; values can stand above or below the binder they belong to.
Legend:
[1] = target: T1, recombinant human PD-1 dimer expressed with a C-terminal mouse IgG2a Fc tag (hPD-1-mFc) (human); experiment: BLI Octet Red 96, captured hPD-L1-hFc
T1 construct: also called human PD-1-mFc

[2] = target: PD-1 chimera hPD1-hCD300a on Jurkat/AP1-Luc cells (human); experiment: cell-based or functional assay
[3] = target: recombinant human PD-1 expressed with a C-terminal human IgG1 Fc tag (hPD-1-hFc) (human); experiment: SPR Biacore 3000, captured hPD-L1-mFc
[4] = target: T2, polyclonal rabbit anti-mouse antibody (GE Catalog #BR-1008-38) coupled to the CM5 Biacore sensor surface (rabbit); experiment: SPR Biacore 3000, antibody alone over the anti-mouse Fc capture surface of the hPD-L1-mFc assay (background control)
T2 construct: also called anti-mouse Fc capture surface

[5] = target: T3, recombinant cynomolgus monkey PD-1 expressed with a C-terminal myc-myc-hexahistidine tag (cynomolgus monkey); experiment: SPR Biacore, mAb captured, 37 C
T3 construct: also called MfPD-1-MMH; MIPD-1-MMH
T3 chain: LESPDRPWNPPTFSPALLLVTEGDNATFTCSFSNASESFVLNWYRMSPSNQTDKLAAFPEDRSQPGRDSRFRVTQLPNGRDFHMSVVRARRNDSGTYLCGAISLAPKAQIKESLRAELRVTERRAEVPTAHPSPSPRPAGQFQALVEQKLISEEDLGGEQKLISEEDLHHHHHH

[6] = target: T3, recombinant cynomolgus monkey PD-1 …; experiment: SPR Biacore, mAb captured, 25 C
[7] = target: T4, recombinant human PD-1 expressed with a C-terminal myc-myc-hexahistidine tag (human); experiment: SPR Biacore, mAb captured, 37 C
T4 construct: monomeric reagent; also called hPD-1-MMH; human PD-1-MMH

[8] = target: T5, human PD-1 dimer (human PD-1-mFc or human PD-1-hFc) (human, Fc-mediated homodimer; one copy of the chain is given.); experiment: SPR Biacore, mAb captured, 25 C
T5 construct: also called hPD-1-mFc; hPD1-hFc; not shown: The C-terminal Fc tag

[9] = target: T6, monkey PD-1 with mFc (monkey PD-1-mFc) (monkey); experiment: SPR 25C, mAb captured
T6 construct: also called monkey PD-1 dimer; MfPD-1 dimer
T6 chain: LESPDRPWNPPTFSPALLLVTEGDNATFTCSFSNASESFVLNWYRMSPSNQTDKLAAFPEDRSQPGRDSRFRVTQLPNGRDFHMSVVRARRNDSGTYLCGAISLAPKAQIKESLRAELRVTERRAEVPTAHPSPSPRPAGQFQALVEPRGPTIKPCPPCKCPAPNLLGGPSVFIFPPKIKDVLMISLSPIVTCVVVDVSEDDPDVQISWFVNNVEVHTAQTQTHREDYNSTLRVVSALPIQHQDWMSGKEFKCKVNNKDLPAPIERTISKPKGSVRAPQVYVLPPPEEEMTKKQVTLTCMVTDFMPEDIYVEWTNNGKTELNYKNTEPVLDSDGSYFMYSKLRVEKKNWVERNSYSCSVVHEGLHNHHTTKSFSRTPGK

[10] = target: T6, monkey PD-1 with mFc (monkey PD-1-mFc); experiment: SPR 37C, mAb captured;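 also: Real-time binding of antigen to purified anti-PD-1 antibodies, measured by surface plasmon resonance on a Biacore 4000 or T200 instrument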
[11] = target: T1, recombinant human PD-1 dimer expressed …; experiment: competition ELISA, 1.5 nM hPD-1-mFc, coated hPD-L1-hFc
[12] = target: T1, recombinant human PD-1 dimer expressed …; experiment: competition ELISA, 1.5 nM hPD-1-mFc, coated hPD-L1-hFc; * below assay bottom
[13] = target: T5, human PD-1 dimer (human PD-1-mFc or …); experiment: SPR Biacore, mAb captured, 37 C

recombinant human PD-1 expressed with a C-terminal human IgG1 Fc tag (hPD-1-hFc) (human), sequence (chain, as listed by the source limits assumed): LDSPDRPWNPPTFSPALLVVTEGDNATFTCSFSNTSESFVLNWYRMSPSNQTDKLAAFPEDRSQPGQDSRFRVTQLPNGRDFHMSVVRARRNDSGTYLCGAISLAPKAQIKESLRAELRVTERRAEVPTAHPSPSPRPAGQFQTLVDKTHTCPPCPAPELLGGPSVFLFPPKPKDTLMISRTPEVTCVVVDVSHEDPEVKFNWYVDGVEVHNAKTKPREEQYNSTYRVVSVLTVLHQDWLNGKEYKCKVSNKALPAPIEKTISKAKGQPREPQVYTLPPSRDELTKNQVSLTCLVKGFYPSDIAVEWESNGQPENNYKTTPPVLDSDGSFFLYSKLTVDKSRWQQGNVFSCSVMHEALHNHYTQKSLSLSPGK
T5 sequence (chain, as listed by the source limits assumed): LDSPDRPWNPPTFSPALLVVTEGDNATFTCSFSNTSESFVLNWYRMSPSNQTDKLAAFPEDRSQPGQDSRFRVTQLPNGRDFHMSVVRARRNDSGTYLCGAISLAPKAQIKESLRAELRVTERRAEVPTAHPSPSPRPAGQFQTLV

B1: H2aM7780N (antibody, mouse IgG2a, V domains shown)
VH: QVQLVESGGGVVQSGRSLRLSCAASGFTFSSYGMHWVRQAPGKGLEWVAVIWYDGSNIYYSDSVKGRFTISRANSKNTLYLQMNSLRAEDTAVYYCARPGHWNYFFEYWGQGTLVTVSS
VL: DIQMTQSPSSLSASVGDRVTITCRASQSINNYLNWYQQKPGKAPKLLIYTASSLQSGVPSRFSGSGSGTDFTLTISSLQPEDFATYYCQQSYSTPPLTFGQGTQLEIK
notes: mouse IgG2a Fc; human variable regions; also called H2M7780N
- binding of the mixture of 100 nM hPD-1-mFc and 500 nM antibody [1]: -0.01 nm
- Concentration (M) of Antibody at 150% activation [2]: 6.62e-09 M

B2: H4H9048P2 (antibody, human IgG4 S228P, kappa, V domains shown)
VH: QVQLVQSGAEVKRPGSSVKVSCKVSGVTFRNFAIIWVRQAPGQGLEWMGGIIPFFSAANYAQSFQGRVTITPDESTSTAFMELASLRSEDTAVYYCAREGERGHTYGFDYWGQGTLVTVSS
VL: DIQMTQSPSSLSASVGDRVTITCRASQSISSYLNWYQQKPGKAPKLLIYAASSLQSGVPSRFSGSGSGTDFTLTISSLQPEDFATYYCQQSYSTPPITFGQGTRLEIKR
notes: human IgG4 Fc
- % Blocking [3]: 91%
- binding of the mixture of 100 nM hPD-1-hFc and 500 nM antibody [3]: 9 RU
- 500 nM of anti-PD-1 monoclonal antibody (RU) [4]: -7 RU

B3: H2aM7788N (antibody, mouse IgG2a, V domains shown)
VH: EVQLVESGGGLVQPGGSLRLSCGASGFTFRNYDMHWVRQITGKGLEWVSAIGSAGDTYYPDSVKGRFTISRENAKNSLYLQMNSLRVGDTAVYYCTRDIHCSSTRCYGMDVWGQGTTVTVSS
VL: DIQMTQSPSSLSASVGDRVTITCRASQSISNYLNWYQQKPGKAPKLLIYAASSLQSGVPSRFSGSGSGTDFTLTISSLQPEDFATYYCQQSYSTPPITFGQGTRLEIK
notes: human variable regions with mouse IgG2a Fc (H2aM prefix); also called H2M7788N; H2aM7788M
- t½ [5]: 3.6 min
- kon [6]: 8530 M⁻¹ s⁻¹

B5: H4xH9119P2 (antibody, V domains shown)
VH: EVQLVESGGGLVQPGRSLRLSCAASGFTFEDYAMHWVRQAPGKGLEWVSGIGWSNVKIGYADSVKGRFTISRDNVRNSLYLQMNSLRTEDTAFYYCVKAYTSMLTLYFDYWGQGTLVTVSS
VL: not shown
notes: human IgG4 Fc with 2 or more amino acid changes as in US20100331527 (H4xH prefix)
- koff [8]: 0.000152 s⁻¹

B8: H4H9019P (antibody, human IgG4, V domains shown)
VH: EVQLVESGGGVVRPGGSLRLSCAASGFTFDDYGMSWVRQVPGKGLEWVSGISWNDGKTVYAESVKGRFIISRDNAKNSLYLEMNSLRAEDTALYYCARDWQYLIERYFDYWGQGTLVTVSS
VL: not shown
notes: human IgG4 Fc; also called H4xH9019P
- binding of the mixture of 100 nM hPD-1-hFc and 500 nM antibody [3]: -1 RU
- 100 nM Monkey PD-1-mFc Bound [9]: 31 RU
- t½ [9]: 129 min
- % blocking at 200 nM antibody [11]: 96%
- 100 nM Monkey PD-1-mFc Bound [10]: 36 RU
- t½ [10]: 45 min

B11: H4xH9034P (antibody, V domains shown)
VH: EVQLVESGGGVVRPGGSLRLSCTASGFTFDDYGMSWVRQAPGKGLEWISGIGWTGGRSSYADSVRGRFTISRDNAKNSLYLQMNSLGAEDTALYYCARDRQWLVQWYFDYWGQGTLVTVSS
VL: not shown
- IC50 [12]: < 0.75 nM
- 100 nM Monkey PD-1-mFc Bound [9]: 95 RU
- t½ [9]: 70 min
- 100 nM Monkey PD-1-mFc Bound [10]: 81 RU
- t½ [10]: 15 min

B12: H4xH9034P (antibody, V domains shown)
VH: B11 VH
VL: not shown
notes: human IgG4 Fc with 2 or more amino acid changes as in US20100331527 (H4xH prefix); also called H4xH9034P2; H4xH8034P2
- t½ [5]: 0.6 min

B13: H4xH9008P (antibody, V domains shown)
VH: EVQLVESGGGLVRPGGSLRLSCAASGFTFSTYAMAWVRQTPGKGLEGVSAIGGSGDSTYYVDSVKGRFTISRDNSKSTLFLQMNSLRAEDTAVYYCVKVRNYDGSFDIWGQGTMVTVSS
VL: not shown
notes: human IgG4 Fc with 2 or more amino acid changes as in US20100331527 (H4xH prefix); also called H4x19008P
- Kd [8]: 0.786 nM

B14: H2aM7794N (antibody, V domains shown)
VH: QLQLQESGPDLVKPSDTLSLTCTVSDDSISSTTYYWAWIRQPPGKGLEWIGSMSYNGNNYYNPSLKSRVAISAGTSQKQFSLKLTSVTAADTAVYHCARHLGYNGNWYPFDFWGQGILVTVSS
VL: not shown
notes: human variable regions with mouse IgG2a Fc (H2aM prefix); also called H2M7794N
- t½ [13]: 65 min

B15: H4H7798N (antibody, human IgG4, V domains shown)
VH: EVQLLESGGVLVQPGGSLRLSCAASGFTFSNFGMTWVRQAPGKGLEWVSGISGGGRDTYFADSVKGRFTISRDNSKNTLYLQMNSLKGEDTAVYYCVKWGNIYFDYWGQGTLVTVSS
VL: DIQMTQSPSSLSASVGDSITITCRASLSINTFLNWYQQKPGKAPNLLIYAASSLHGGVPSRFSGSGSGTDFTLTIRTLQPEDFATYYCQQSSNTPFTFGPGTVVDFRR
notes: human IgG4 Fc; also called M4H7798N; HAH7798N
- Kd [6]: 3.8 nM

Continued, values first:

- kon [7]: 68600 M⁻¹ s⁻¹
B4: H4xH9120P2 (antibody, V domains shown)
VH: QVQLVQSGAEVKRPGASVKVSCKASGYTFTSFYMYWVRQAPGQGLEWMGIINPSDGSTSNAQKFQGRVTMTRDTSTSTVYMELSSLRSEDTAVYYCARRVAGDIFDIWGQGTMVTVSS
VL: not shown
notes: as for B5

- binding of the mixture of 100 nM hPD-1-hFc and 500 nM antibody [3]: -6 RU
- 100 nM Monkey PD-1-mFc Bound [9]: 84 RU
- t½ [9]: 77 min
- 100 nM Monkey PD-1-mFc Bound [10]: 94 RU
- t½ [10]: 19 min
B6: H4xH9145P2 (antibody, V domains shown)
VH: QVQLVESGGGVVQPGRSLRLSCSASGFTFSAYAMHWVRQAPGKGLEWVAAISYGGSDKYYADSVKGRFTISRDNSKNTLYLQMNSLRTDDTAVYYCAKSAHWNFFFDYWGQGTLVTVSS
VL: not shown
notes: human IgG4 Fc with 2 or more amino acid changes (US20100331527)

- binding of the mixture of 100 nM hPD-1-hFc and 500 nM antibody [3]: -3 RU
- 100 nM Monkey PD-1-mFc Bound [9]: 74 RU
- t½ [9]: 81 min
- 100 nM Monkey PD-1-mFc Bound [10]: 52 RU
- t½ [10]: 15 min
B7: H4xH9135P2 (antibody, V domains shown)
VH: EVQLVESGGSVVRPGGSLRLSCVVSGFTFEDYGLSWVRQIPGKGLEWVSGISWTGGNTGYADSVKGRFTISRDNAKNSLYLQMNSLRAEDTALYHCTRDRQWLMQWYFDYWGQGTLVTVSS
VL: not shown
notes: as for B6

- binding of the mixture of 100 nM hPD-1-hFc and 500 nM antibody [3]: -5 RU
- 100 nM Monkey PD-1-mFc Bound [9]: 64 RU
- t½ [9]: 94 min
- 100 nM Monkey PD-1-mFc Bound [10]: 60 RU
- t½ [10]: 14 min
B9: H4xH9128P2 (antibody, V domains shown)
VH: QVQLQESGPGLVKPSETLSLTCTVSGGSISSYHWNWIRQSPGKGLEWIGYIYYIGSTDYNPSLESRVTISVDTSKNQFSLKLSSVTAADTAVYYCARVPVGATGASDVWGQGTMVTVSS
VL: not shown
notes: as for B6

- binding result [6]: no binding (tested: 200 nM)
B10: H2aM7796N (antibody, mouse IgG2a, V domains shown)
VH: QVQLVESGGGVVQPGRSLRLSCAASGFTFSSYGMHWVRQAPGKGLEWVAIIWSDGDSEYNLDSVKGRFTISRDNSKNTLYLQMNSLRVEDSAVYYCARDRDLEDIWGQGTMVTVSS
VL: DIQMTQSPSSLSASVGDRVTITCRASQGIRNDLGWYQQKPGKAPKRLIYAASNLQSGVPSRFSGSGSGTEFTLTISSLQPEDFATYYCLQHNSYPLTFGGGTKVEIK
notes: mouse IgG2a Fc; also called H2M7796N
